Test results published in the supplement of paper PMC10724198.
± gives the standard deviation of the averaged measurements.

How the values were obtained:
Saccharomyces cerevisiae [1] = assay: protein stability index of tFT-peptide fusion (C-terminal peptide) (PSI (0-1 scale)); higher = more stable (slower turnover)
Description: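 MPS profiling in S. cerevisiae of the tFT-X12 degron library: putative degron peptides plus stable controls, 12 aa, fused to the C-terminus of a sfGFP-mCherry timer. Cells are FACS-sorted into 8 mCherry/sfGFP bins and deep-sequenced. PSI runs from 0 (unstable) to 1 (stable). Backgrounds are wild type, das1Δ and doa10Δ at 30 °C, and wild type, das1Δ, cdc34-1 and cdc53-1 at 37 °C; 2-3 technical replicates each.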

Saccharomyces cerevisiae [2] = assay: as above; details: genetic background: wild type; temperature: 30 C
[3] = genetic background: cdc34-1, temperature: 37 C
[4] = genetic background: cdc53-1, temperature: 37 C
[5] = genetic background: das1 deletion, temperature: 30 C
[6] = genetic background: das1 deletion, temperature: 37 C
[7] = genetic background: doa10 deletion, temperature: 30 C
[8] = genetic background: wild type, temperature: 30 C
[9] = genetic background: wild type, temperature: 37 C
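Note: PSI is a weighted mean of sequencing reads over stability bins, variants kept only with over 10 reads, mCherry proximal and sfGFP distal, peptide attached via GGGS linker.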

Sequence | protein stability index (Saccharomyces cerevisiae [1]; [3]) | protein stability index (Saccharomyces cerevisiae [1]; [4]) | protein stability index (Saccharomyces cerevisiae [1]; [5]) | protein stability index (Saccharomyces cerevisiae [1]; [6]) | protein stability index (Saccharomyces cerevisiae [1]; [7]) | protein stability index (Saccharomyces cerevisiae [1]; [8]) | protein stability index (Saccharomyces cerevisiae [1]; [9]) | protein stability index (Saccharomyces cerevisiae [2])
LFHPPSFSLRLF | 0.681 ± 0.038 | 0.738 ± 0.025 | 0.678 ± 0.019 | 0.748 ± 0.023 | 0.301 ± 0.038 | 0.348 ± 0.025 | 0.5619 ± 0.0044 | 0.528 ± 0.25
LFHVWSLRFFWL | 0.576 ± 0.039 | 0.669 ± 0.017 | 0.557 ± 0.018 | 0.6837 ± 0.0039 | 0.2583 ± 0.00064 | 0.282 ± 0.027 | 0.434 ± 0.015 | 0.391 ± 0.023
LFLFVGCSVRRL | 0.528 ± 0.023 | 0.58092 ± 0.00029 | 0.392 ± 0.034 | 0.599 ± 0.021 | 0.374 ± 0.0049 | 0.391 ± 0.014 | 0.5744 ± 0.0024 | 0.4951 ± 0.0047
LFLLYVLVSLFV | 0.288 ± 0.019 | 0.347 ± 0.064 | 0.267 ± 0.048 | 0.369 ± 0.019 | 0.222 ± 0.0045 | 0.251 ± 0.025 | 0.39 ± 0.052 | 0.281 ± 0.045
LFLVVVVRAGGF | 0.144 ± 0.042 | 0.288 ± 0.058 | 0.214 ± 0.03 | 0.4065 ± 0.0012 | 0.187 ± 0.0076 | 0.208 ± 0.022 | 0.382 ± 0.045 | 0.293 ± 0.0094
LFPVASLCLART | 0.643 ± 0.028 | 0.648 ± 0.048 | 0.527 ± 0.036 | 0.663 ± 0.0042 | 0.513 ± 0.022 | 0.524 ± 0.023 | 0.659 ± 0.057 | 0.529 ± 0.065
LFRFVFLLFGFW | 0.452 ± 0.019 | 0.428 ± 0.025 | 0.435 ± 0.015 | 0.566 ± 0.032 | 0.4885 ± 0.0013 | 0.423 ± 0.034 | 0.526 ± 0.026 | 0.446 ± 0.049
LFRNIFLFVFLI | 0.267 ± 0.029 | 0.229 ± 0.0072 | 0.362 ± 0.021 | 0.468 ± 0.012 | 0.334 ± 0.0071 | 0.241 ± 0.02 | 0.307 ± 0.016 | 0.306 ± 0.029
LFWTWVLVGVSV | 0.1462 ± 0.0014 | 0.176 ± 0.029 | 0.192 ± 0.022 | 0.283 ± 0.013 | 0.127 ± 0.0013 | 0.164 ± 0.015 | 0.263 ± 0.033 | 0.256 ± 0.028
LGATYSVQLYVS | 0.336 ± 0.044 | 0.577 ± 0.022 | 0.539 ± 0.038 | 0.621 ± 0.013 | 0.0746 ± 0.012 | 0.0832 ± 0.015 | 0.0856 ± 0.005 | 0.131 ± 0.0029
LGIPKLLCFVCT | 0.424 ± 0.011 | 0.432 ± 0.0061 | 0.304 ± 0.023 | 0.465 ± 0.02 | 0.248 ± 0.0065 | 0.29 ± 0.019 | 0.421 ± 0.017 | 0.386 ± 0.019
LGLCFFFYSLHS | 0.539 ± 0.064 | 0.58 ± 0.037 | 0.411 ± 0.041 | 0.586 ± 0.013 | 0.37 ± 0.0054 | 0.401 ± 0.016 | 0.599 ± 0.057 | 0.462 ± 0.0096
LGNVTDVMHRLS | 0.645 ± 0.038 | 0.739 ± 0.0094 | 0.6481 ± 0.0036 | 0.734 ± 0.023 | 0.328 ± 0.0097 | 0.379 ± 0.012 | 0.617 ± 0.012 | 0.48 ± 0.0083
LGVVLFCFRFCR | 0.464 ± 0.0074 | 0.556 ± 0.028 | 0.391 ± 0.022 | 0.598 ± 0.022 | 0.353 ± 0.0068 | 0.371 ± 0.027 | 0.543 ± 0.019 | 0.477 ± 0.005
LHFHIYLIISPF | 0.117 ± 0.0026 | 0.137 ± 0.022 | 0.2 ± 0.02 | 0.311 ± 0.0072 | 0.238 ± 0.011 | 0.186 ± 0.034 | 0.261 ± 0.01 | 0.294 ± 0.012
LHLLFLPFVVCL | 0.212 ± 0.017 | 0.2458 ± 0.0015 | 0.216 ± 0.037 | 0.348 ± 0.027 | 0.0556 ± 0.012 | 0.0711 ± 0.025 | 0.113 ± 0.014 | 0.108 ± 0.02
LIFFFCSWVFRF | 0.3037 ± 0.00048 | 0.291 ± 0.032 | 0.402 ± 0.061 | 0.464 ± 0.031 | 0.327 ± 0.044 | 0.272 ± 0.038 | 0.365 ± 0.0071 | 0.377 ± 0.012
LIFLSISFISSL | 0.1 ± 0.0059 | 0.245 ± 0.049 | 0.168 ± 0.036 | 0.316 ± 0.028 | 0.104 ± 0.043 | 0.15 ± 0.037 | 0.286 ± 0.0096 | 0.295 ± 0.05
LILFMLLSFLTT | 0.371 ± 0.013 | 0.409 ± 0.042 | 0.294 ± 0.028 | 0.419 ± 0.018 | 0.281 ± 0.016 | 0.293 ± 0.025 | 0.3954 ± 0.0026 | 0.373 ± 0.032
LIRVLRVLRHSS | 0.607 ± 0.015 | 0.6917 ± 0.0043 | 0.638 ± 0.018 | 0.7225 ± 0.0011 | 0.167 ± 0.0097 | 0.194 ± 0.021 | 0.382 ± 0.045 | 0.375 ± 0.056
